Test system: Ramos cells
Experiment: Ramos tumor model in nude mice
Assay type: in vivo
Details: 200 μg i.v. on days 0, 2, 4, 6 and 8; Ramos cells s.c.
Experimental: Nude mice are administered 5×10^6 Ramos cells subcutaneously on day 0 and injected intravenously with 200 μg control human IgG or TRU-016 test protein produced by CHO cells treated with 200 μM DMJ, 10 μM kifenunsine or 200 μM castanospermine on days 0, 2, 4, 6, and 8. Mice typically develop tumors within 6 days and die shortly thereafter. Tumors are measured three times weekly with digital calipers and LabCat software, and tumor volume is calculated as […]. Body weight is also determined once a week.
Mice are sacrificed when the tumor reaches 1500 mm^3 in size (1200 mm^3 on Fridays). Mice are also sacrificed if ulceration of a tumor occurs, the tumor inhibits the mobility of animal, or if weight loss equals or exceeds 20%.

B1: Kifu TRU-016: TRU-016 produced by CHO cells treated with 10 μM kifenunsine (antibody, chains of the INN, looked up, V domains shown)
VH: EVQLVQSGAEVKKPGESLKISCKGSGYSFTGYNMNWVRQMPGKGLEWMGNIDPYYGGTTYNRKFKGQVTISADKSISTAYLQWSSLKASDTAMYYCARSVGPFDSWGQGTLVTVSS
VL: EIVLTQSPATLSLSPGERATLSCRASENVYSYLAWYQQKPGQAPRLLIYFAKTLAEGIPARFSGSGSGTDFTLTISSLEPEDFAVYYCQHHSDNPWTFGQGTKVEIK
modifications: altered glycosylation (kifunensine-treated CHO)
notes: TRU-016 produced by CHO cells treated with 10 μM kifenunsine
Question: Which “Median Survival Time” value does the source give for B1 here?
Answer: Its value is 10 days.
